One molecule from patent publication US20120213844A1 can be followed below.

Positions of bridges follow the written chain, without caps; N, C: chain ends. No end group written: not given here. PEG = not defined here

For the test, the target named is human EGFR on tumor cells (human) (UniProt P00533). Put plainly: flow cytometry on A431 cells preincubated with 2 ug EGF, 2 uM bio-P190:avidin complex, 4 C. In general terms: Flow cytometry measures light scatter and fluorescence of single cells or particles in a stream.

Consider DPCTWEVWGRECLQ-{PEG-biotin} (disulfide 3-12 (inferred); reading uncertain) [Biotinylated-PEGylated P190], for which the staining, fold over background stood at 20 fold.
